# Measurements from US12303551B2, “Cellular immunotherapy compositions and uses thereof” (CERO THERPEUTICS HOLDINGS, INC., priority 2018, dated 2025).
# B1: CER19: Chimeric engulfment receptor: Tim4 binding, Tim4 transmembrane, TLR5 signaling; SEQ ID NO: 95 (protein)
# chain: MSKGLLLLWLVTELWWLYLTPAASEDTIIGFLGQPVTLPCHYLSWSQSRNSMCWGKGSCPNSKCNAELLRTDGTRIISRKSTKYTLLGKVQFGEVSLTISNTNRGDSGVYCCRIEVPGWFNDVKKNVRLELRRATTTKKPTTTTRPTTTPYVTTTTPELLPTTVMTTSVLPTTTPPQTLATTAFSTAVTTCPSTTPGSFSQETTKGSAFTTESETLPASNHSQRSMMTISTDIAVLRPTGSNPGILPSTSQLTTQKTTLTTSESLQKTTKSHQINSRQTILIIACCVGFVLMVLLFLAFLTKFRGFCFICYKTAQRLVFKDHPQGTEPDMYKYDAYLCFSSKDFTWVQNALLKHLDTQYSDQNRFNLCFEERDFVPGENRIANIQDAIWNSRKIVCLVSRHFLRDGWCLEAFSYAQGRCLSDLNSALIMVVVGSLSQYQLMKHQSIRGFVQKQQYLRWPEDFQDVGWFLHKLSQQILKKEKEKKKDNNIPLQTVATIS
# modifications: CER19, amino acids 1-22 are signal peptide
# B2: CER17: Chimeric engulfment receptor: Tim4 binding, Tim4 transmembrane, TLR3 signaling; SEQ ID NO: 112 (protein)
# chain: MSKGLLLLWLVTELWWLYLTPAASEDTIIGFLGQPVTLPCHYLSWSQSRNSMCWGKGSCPNSKCNAELLRTDGTRIISRKSTKYTLLGKVQFGEVSLTISNTNRGDSGVYCCRIEVPGWFNDVKKNVRLELRRATTTKKPTTTTRPTTTPYVTTTTPELLPTTVMTTSVLPTTTPPQTLATTAFSTAVTTCPSTTPGSFSQETTKGSAFTTESETLPASNHSQRSMMTISTDIAVLRPTGSNPGILPSTSQLTTQKTTLTTSESLQKTTKSHQINSRQTILIIACCVGFVLMVLLFLAFLEGWRISFYWNVSVHRVLGFKEIDRQTEQFEYAAYIIHAYKDKDWVWEHFSSMEKEDQSLKFCLEERDFEAGVFELEAIVNSIKRSRKIIFVITHHLLKDPLCKRFKVHHAVQQAIEQNLDSIILVFLEEIPDYKLNHALCLRRGMFKSHCILNWPVQKERIGAFRHKLQVALGSKNSVH
# modifications: CER17, amino acids 1-22 are signal peptide
# B3: CER23: Chimeric engulfment receptor: Tim4 binding, Tim4 transmembrane, TLR9 signaling; SEQ ID NO: 116 (protein)
# chain: MSKGLLLLWLVTELWWLYLTPAASEDTIIGFLGQPVTLPCHYLSWSQSRNSMCWGKGSCPNSKCNAELLRTDGTRIISRKSTKYTLLGKVQFGEVSLTISNTNRGDSGVYCCRIEVPGWFNDVKKNVRLELRRATTTKKPTTTTRPTTTPYVTTTTPELLPTTVMTTSVLPTTTPPQTLATTAFSTAVTTCPSTTPGSFSQETTKGSAFTTESETLPASNHSQRSMMTISTDIAVLRPTGSNPGILPSTSQLTTQKTTLTTSESLQKTTKSHQINSRQTILIIACCVGFVLMVLLFLAFLGWDLWYCFHLCLAWLPWRGRQSGRDEDALPYDAFVVFDKTQSAVADWVYNELRGQLEECRGRWALRLCLEERDWLPGKTLFENLWASVYGSRKTLFVLAHTDRVSGLLRASFLLAQQRLLEDRKDVVVLVILSPDGRRSRYVRLRQRLCRQSVLLWPHQPSGQRSFWAQLGMALTRDNHHFYNRNFCQGPTAE
# modifications: CER23, amino acids 1-22 are signal peptide
# B4: CER26: Chimeric engulfment receptor: Tim4 binding, Tim4 transmembrane, TLR1 signaling; SEQ ID NO: 118 (protein)
# chain: MSKGLLLLWLVTELWWLYLTPAASEDTIIGFLGQPVTLPCHYLSWSQSRNSMCWGKGSCPNSKCNAELLRTDGTRIISRKSTKYTLLGKVQFGEVSLTISNTNRGDSGVYCCRIEVPGWFNDVKKNVRLELRRATTTKKPTTTTRPTTTPYVTTTTPELLPTTVMTTSVLPTTTPPQTLATTAFSTAVTTCPSTTPGSFSQETTKGSAFTTESETLPASNHSQRSMMTISTDIAVLRPTGSNPGILPSTSQLTTQKTTLTTSESLQKTTKSHQINSRQTILIIACCVGFVLMVLLFLAFLSYLDLPWYLRMVCQWTQTRRRARNIPLEELQRNLQFHAFISYSGHDSFWVKNELLPNLEKEGMQICLHERNFVPGKSIVENIITCIEKSYKSIFVLSPNFVQSEWCHYELYFAHHNLFHEGSNSLILILLEPIPQYSIPSSYHKLKSLMARRTYLEWPKEKSKRGLFWANLRAAINIKLTEQAKK
# modifications: CER26, amino acids 1-22 are signal peptide
# B5: CER5: Chimeric engulfment receptor: Tim4 binding, Tim4 transmembrane, TLR4 signaling; SEQ ID NO: 94 (protein)
# chain: MSKGLLLLWLVTELWWLYLTPAASEDTIIGFLGQPVTLPCHYLSWSQSRNSMCWGKGSCPNSKCNAELLRTDGTRIISRKSTKYTLLGKVQFGEVSLTISNTNRGDSGVYCCRIEVPGWFNDVKKNVRLELRRATTTKKPTTTTRPTTTPYVTTTTPELLPTTVMTTSVLPTTTPPQTLATTAFSTAVTTCPSTTPGSFSQETTKGSAFTTESETLPASNHSQRSMMTISTDIAVLRPTGSNPGILPSTSQLTTQKTTLTTSESLQKTTKSHQINSRQTILIIACCVGFVLMVLLFLAFLKFYFHLMLLAGCIKYGRGENIYDAFVIYSSQDEDWVRNELVKNLEEGVPPFQLCLHYRDFIPGVAIAANIIHEGFHKSRKVIVVVSQHFIQSRWCIFEYEIAQTWQFLSSRAGIIFIVLQKVEKTLLRQQVELYRLLSRNTYLEWEDSVLGRHIFWRRLRKALLDGKSWNPEGTVGTGCNWQEATSI
# modifications: CER5, amino acids 1-22 are signal peptide
# B6: CER21: Chimeric engulfment receptor: Tim4 binding, Tim4 transmembrane, TLR8 signaling; SEQ ID NO: 96 (protein)
# chain: MSKGLLLLWLVTELWWLYLTPAASEDTIIGFLGQPVTLPCHYLSWSQSRNSMCWGKGSCPNSKCNAELLRTDGTRIISRKSTKYTLLGKVQFGEVSLTISNTNRGDSGVYCCRIEVPGWFNDVKKNVRLELRRATTTKKPTTTTRPTTTPYVTTTTPELLPTTVMTTSVLPTTTPPQTLATTAFSTAVTTCPSTTPGSFSQETTKGSAFTTESETLPASNHSQRSMMTISTDIAVLRPTGSNPGILPSTSQLTTQKTTLTTSESLQKTTKSHQINSRQTILIIACCVGFVLMVLLFLAFLHHLFYWDVWFIYNVCLAKVKGYRSLSTSQTFYDAYISYDTKDASVTDWVINELRYHLEESRDKNVLLCLEERDWDPGLAIIDNLMQSINQSKKTVFVLTKKYAKSWNFKTAFYLALQRLMDENMDVIIFILLEPVLQHSQYLRLRQRICKSSILQWPDNPKAEGLFWQTLRNVVLTENDSRYNNMYVDSIKQY
# modifications: CER21, amino acids 1-22 are signal peptide
# Tested on: SCC152 cells
# Assay: Elimination of GFP-expressing SCC152 target cells over time (quantification and time lapse imaging)
# Format: cell-based
# Conditions: 96-well co-culture, CD8+/E7 TCR + CD4+/CER + SCC152 1:1:1, compared to control
# Protocol: Target SCC152 cells were co-cultured with CD8+ T cells transduced with HPV E7 TCR+CD4+ T cells transduced with a selected CER, or controls (CD8+ T cell transduced with HPV E7 TCR+CD4+ transduced control) at a 1:1:1 ratio. The number of target cells were quantified using imaging software. 0 hours, 24 hours, and 48 hours are shown from left to right.
# (§1) FIG. 21 is time lapse imaging from 96-well co-culture experiments comprising CD8+ T cells transduced with HPV16 E7 TCR+CD4+ T cells transduced with CER5, CER17 or CER19 incubated with SCC152 target cells at a 1:1:1 ratio. SCC152 HPV+ target cells were quantified using automated cell counting software.
# as §1, with “22” for “21”, “CER21, CER23” for “CER5, CER17”, “CER26” for “CER19”
# as §1, with “23” for “21”, “CER103b, CER104” for “CER5, CER17”, “CER105” for “CER19”
# as §1, with “24” for “21”, “CER106, CER116” for “CER5, CER17”, “CER27” for “CER19”
# FIG. 57 is a bar graph showing quantification of loss of SCC152 HPV16+ target cells over time during co-culture assays. SCC152 cells were transduced with green fluorescent protein (GFP) and co-cultured with CD8+ T cells transduced with HPV16 E7 TCR and CD4+ T cells transduced with a selected CER (CER29, CER30, CER110, CER112, CER113, CER114, CER116, or CER117) or a CD4+ T cell control at a 1:1:1 ratio (CD8:CD4:target cell). The number of target cells was quantified at various time points during co-culture (0 hrs, 12 hrs, 24 hrs, and 36 hrs) using fluorescence microscopy and imaging software.
# (§2) FIG. 58 are fluorescence micrograph images of the co-culture assay described in FIG. 57, showing clearance of the SCC152 cells (pink) as co-culture with CD8+ T cells transduced with HPV16 E7 TCR and CD4+ T cells transduced with a selected CER (columns from left to right: control, CER29, CER30, CER110, or CER112) progresses (rows from top to bottom: 0 hrs, 12 hrs, 24 hrs, and 36 hrs).
# as §2, with “59” for “58”, “CER113, CER114, CER116,” for “CER29, CER30, CER110,”, “CER117)” for “CER112)”
# (§3) Elimination of target SCC152 cells was also detected by quantifying green fluorescent protein expression by SCC152 cells over time (0 hr, 24 hr, 48 hr) during co-incubation with CD8+ T cells transduced with HPV16 E7 specific TCR+ CD4 T cells transduced with selected CER (see, FIG. 20).
# as §3, with “hr, 12 hr,” for “hr,”, “hr, 36” for “hr, 48”, “TCR+ CD4+” for “TCR+ CD4”, “CER (CER29, CER30, CER110, CER112, CER113, CER114, CER116, or CER117)” for “CER”, “FIG. 57).” for “FIG. 20).”
row,Molecule,number of SCC152 cells in time lapse imaging
1,B1,decreasing in numbers over time
2,B2,decreasing in numbers over time
3,B3,decreasing in numbers over time
4,B4,decreasing in numbers over time
5,B5,decreasing in numbers over time
6,B6,decreasing in numbers over time
